From the supplement of paper PMC7877785
± gives the uncertainty stated by the source.

Assay: self-splicing fitness, log relative to wild type (ln ratio); higher = more splicing; Tetrahymena group I intron in knt gene, E. coli kanamycin selection, DiMSum; sequences stand for … in CUCUCU…GGAGGGAAAAGUUAUCAGGCAUGCACCUGGUAGCUAGUCUUUAAACCAAUAGAUUGCAUCGGUUUAAAAGGCAAGACCGUCAAAUUGCGGGAAAGGGGUCAACAGCCGUUCAGUACCAAGUCUCAGGGGAAACUUUGAGAUGGCCUUGCAAAGGGUAUGGUAAUAAGCUGACGGACAUGGUCCUAACCACGCAGCCAAGUCCUAAGUCAACAGAUCUUCUGUUGAUAUGGAUGCAGUUCACAGACUAAAUGUCGGUCGGGGAAGAUGUAUUCUUCUCAUAAGAUAUAGUCGGACCUCUCCUUAAUGGGAGCUAGCGGAUGAAGUGAUGCAACACUGGAGCCGCUGGGAACUAAUUUGUAUGCGAAAGUAUAUUGAUUAGUUUUGGAGUACUCGUGGUCG
Method in brief: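 A randomised library covering all eight P1ex-region intron nucleotides was built with the intron in the knt kanamycin-resistance gene on pET-22b(+) and held in E. coli BL21(DE3). Cells were grown overnight at 37°C or 30°C on LB agar, with or without 25 μg/mL kanamycin, plus 100 μg/mL carbenicillin, 50 μM IPTG and 0.2% rhamnose, and pooled colonies were amplicon-sequenced on an Illumina HiSeq 2500. DiMSum fitness is the error-weighted combination of wild-type-normalised replicate fold changes, kanamycin versus none.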

Sequence | self-splicing fitness (ln) (30 °C) | self-splicing fitness (ln) (37 °C)
AAGUAGCAAUAUUACGGCUA | -1.01 ± 0.085 | -0.475 ± 0.095
ACUGAGCAAUAUUACGCCCA | -2.64 ± 0.43 | -2.15 ± 0.28
AGAUAGCAAUAUUACGCUAU | -3.58 ± 0.4 | -3.47 ± 0.24
GUCAAGCAAUAUUACGAUGG | -4.88 ± 0.38 | -3.68 ± 0.27
UACAAGCAAUAUUACGGUCU | -1.52 ± 0.052 | -0.534 ± 0.065
UACAAGCAAUAUUACGGGGA | -1.5 ± 0.12 | -1.09 ± 0.13
CUGGAGCAAUAUUACGGGCC |  | -2.19 ± 0.31
CAUAAGCAAUAUUACGAAUG | -3.79 ± 0.23 | -2.32 ± 0.19
GGUCAGCAAUAUUACGUAAC | -1.32 ± 0.14 | -0.628 ± 0.16
AGCCAGCAAUAUUACGUCGA | -3.17 ± 0.17 | -2.88 ± 0.18
UAAAAGCAAUAUUACGUAUU | -2.24 ± 0.14 | -1.88 ± 0.19
AUGGAGCAAUAUUACGGAUC | -2.51 ± 0.25 | -2.57 ± 0.36
UUCUAGCAAUAUUACGGACA | -0.456 ± 0.097 | 0.211 ± 0.12
AACUAGCAAUAUUACGAAGU | -3.67 ± 0.3 | -2 ± 0.13
GCCCAGCAAUAUUACGUGAG | -0.944 ± 0.043 | -0.161 ± 0.056
AAACAGCAAUAUUACGUGUC | -4.08 ± 0.15 | -2.78 ± 0.13
ACUGAGCAAUAUUACGCUCC | -2.62 ± 0.45 | -1.18 ± 0.27
GUCCAGCAAUAUUACGAACU | -1.37 ± 0.074 | -0.292 ± 0.081
AACCAGCAAUAUUACGUUUA | -1.01 ± 0.062 | -0.649 ± 0.074
UUACAGCAAUAUUACGGUUG | -0.8 ± 0.054 | -0.338 ± 0.07
CUUCAGCAAUAUUACGACAG | -0.695 ± 0.069 | -0.281 ± 0.093
GGUUAGCAAUAUUACGGUCG | -0.323 ± 0.13 | -0.0539 ± 0.18
ACGGAGCAAUAUUACGAGCU | -3.64 ± 0.46 | -2.24 ± 0.32
AGUUAGCAAUAUUACGUGCU | -2.35 ± 0.14 | -1.78 ± 0.21
CGACAGCAAUAUUACGGAGA | -2.18 ± 0.15 | -3.29 ± 0.28
AGCCAGCAAUAUUACGGCCC |  | -0.0646 ± 0.48

Sequence | self-splicing fitness (ln) (30 °C) | self-splicing fitness (ln) (37 °C)
AGCCAGCAAUAUUACGAGGU | -3.51 ± 0.23 | -1.93 ± 0.21
CAAAAGCAAUAUUACGUAGC | -3.1 ± 0.13 | -2.61 ± 0.24
CUUUAGCAAUAUUACGCUCG | -1.68 ± 0.15 | -0.602 ± 0.18
AGCUAGCAAUAUUACGUUAA | -2.49 ± 0.21 | -1.36 ± 0.14
AUAUAGCAAUAUUACGUUGC | -2.4 ± 0.19 | -1.25 ± 0.23
UGAGAGCAAUAUUACGGUAA | -4.27 ± 0.25 | -2.27 ± 0.23
CAUCAGCAAUAUUACGUGGA | -3.6 ± 0.19 | -2.05 ± 0.12
GGACAGCAAUAUUACGUAUA | -0.645 ± 0.1 | -0.388 ± 0.095
CCUCAGCAAUAUUACGUCGG | -3.36 ± 0.16 | -2.59 ± 0.19
AACGAGCAAUAUUACGUUUC | -3.05 ± 0.19 | -2.42 ± 0.19
CGGCAGCAAUAUUACGCCAC | -2.97 ± 0.23 | -1.52 ± 0.3
ACCAAGCAAUAUUACGCUCU | -0.714 ± 0.06 | -0.02 ± 0.073
CAAUAGCAAUAUUACGAAGC | -3.01 ± 0.32 | -2.73 ± 0.32
GUUGAGCAAUAUUACGGUUG | -3.56 ± 0.35 | -1.38 ± 0.38
CACAAGCAAUAUUACGAUAU | -3.34 ± 0.21 | -2.52 ± 0.15
GGCCAGCAAUAUUACGGCAC | -1.58 ± 0.15 | -1.41 ± 0.19
GCAUAGCAAUAUUACGGGGU | -3.74 ± 0.23 | -1.99 ± 0.13
AUCGAGCAAUAUUACGUCCU | -1.18 ± 0.11 | -0.423 ± 0.18
UAUUAGCAAUAUUACGAAUC | -3.46 ± 0.23 | -0.913 ± 0.2
CACCAGCAAUAUUACGUUGA | -4.33 ± 0.31 | -2.1 ± 0.13
GUACAGCAAUAUUACGCAGC | -2.41 ± 0.17 | -2.33 ± 0.23
GUCUAGCAAUAUUACGCGCA | -0.481 ± 0.098 | 0.157 ± 0.087
ACAAAGCAAUAUUACGAAUG | -1.68 ± 0.057 | -1.02 ± 0.085
GAUUAGCAAUAUUACGUGUG | -2.13 ± 0.077 | -1.61 ± 0.075
UUGCAGCAAUAUUACGAUUA | -0.176 ± 0.12 | 0.339 ± 0.087
CGGCAGCAAUAUUACGCUUC |  | -1.56 ± 0.29

Sequence | self-splicing fitness (ln) (30 °C) | self-splicing fitness (ln) (37 °C)
AUAAAGCAAUAUUACGAGCU | -0.379 ± 0.06 | 0.246 ± 0.086
GUUAAGCAAUAUUACGGUUC | -1.6 ± 0.081 | -0.156 ± 0.12
CCCAAGCAAUAUUACGGAGC | -3.64 ± 0.18 | -2.21 ± 0.17
UACUAGCAAUAUUACGCCAU | -2.57 ± 0.26 | -3.06 ± 0.33
ACGAAGCAAUAUUACGUUAA | -3.25 ± 0.22 | -2.09 ± 0.14
CUCAAGCAAUAUUACGUUGA | -3.13 ± 0.21 | -2.48 ± 0.2
GGCGAGCAAUAUUACGCACG | -2.49 ± 0.28 | -2.71 ± 0.36
CUAGAGCAAUAUUACGUAUC |  | -1.7 ± 0.26
UGGCAGCAAUAUUACGGGGG | -3.38 ± 0.23 | -2.84 ± 0.29
ACUGAGCAAUAUUACGACAC | -3.62 ± 0.2 | -2.07 ± 0.24
GUCAAGCAAUAUUACGAGCU | -3.49 ± 0.17 | -1.85 ± 0.15
AUGAAGCAAUAUUACGGGCG | -0.667 ± 0.081 | 0.118 ± 0.1
CGUAAGCAAUAUUACGAACA | -1.23 ± 0.19 | -0.207 ± 0.22
CGAGAGCAAUAUUACGCGAU | -3.7 ± 0.48 | -1.04 ± 0.37
CAUCAGCAAUAUUACGCCAU | -3.98 ± 0.35 | -2.97 ± 0.24
ACAUAGCAAUAUUACGGGUG | -1.25 ± 0.046 | -0.515 ± 0.064
GGUUAGCAAUAUUACGUAAU | -2.05 ± 0.22 | -0.725 ± 0.21
AUAGAGCAAUAUUACGCAAA | -2.79 ± 0.2 | -1.03 ± 0.18
UAUGAGCAAUAUUACGGGUG | -2.3 ± 0.15 | -1.06 ± 0.16
ACCGAGCAAUAUUACGUUAC | -4.23 ± 0.22 | -2.66 ± 0.18
UGGAAGCAAUAUUACGCCAA | -1.12 ± 0.24 | -0.536 ± 0.26
CAAUAGCAAUAUUACGGGGA | -3.12 ± 0.39 | -2.61 ± 0.24
GUAUAGCAAUAUUACGUGGA | -3.62 ± 0.28 | -2.23 ± 0.18
CUUUAGCAAUAUUACGCAUC |  | -1.54 ± 0.43
